One assay addresses T1, HNRNPM (human, UniProt P52272 2-730).
T1 construct: also called NP_005959.2 (+1)
T1 sequence (looked up): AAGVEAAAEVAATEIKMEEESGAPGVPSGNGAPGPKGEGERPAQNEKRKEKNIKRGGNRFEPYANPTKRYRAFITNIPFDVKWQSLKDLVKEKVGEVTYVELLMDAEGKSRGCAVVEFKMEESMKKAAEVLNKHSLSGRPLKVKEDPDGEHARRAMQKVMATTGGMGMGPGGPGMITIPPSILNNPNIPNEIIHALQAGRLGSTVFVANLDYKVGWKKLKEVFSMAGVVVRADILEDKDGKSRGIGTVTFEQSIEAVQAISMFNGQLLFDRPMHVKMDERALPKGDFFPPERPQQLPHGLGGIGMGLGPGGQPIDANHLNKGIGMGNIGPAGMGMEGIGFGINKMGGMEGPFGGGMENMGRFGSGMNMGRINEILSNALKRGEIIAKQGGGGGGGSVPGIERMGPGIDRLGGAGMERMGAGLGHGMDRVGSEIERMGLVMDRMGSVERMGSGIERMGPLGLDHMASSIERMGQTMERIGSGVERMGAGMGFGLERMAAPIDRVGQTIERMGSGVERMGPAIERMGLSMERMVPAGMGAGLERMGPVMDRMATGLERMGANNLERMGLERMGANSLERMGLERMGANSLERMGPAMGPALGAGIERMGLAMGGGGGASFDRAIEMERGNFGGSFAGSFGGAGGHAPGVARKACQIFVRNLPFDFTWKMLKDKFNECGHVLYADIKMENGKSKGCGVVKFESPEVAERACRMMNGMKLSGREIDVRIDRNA
Put plainly: co-IP with anti-FLAG, N-FLAG B3GNT2, mass spectrometry.

A further assay addresses T2, TGM1 (human, UniProt P22735 1-817, limits assumed).
T2 construct: also called NP_000350.1
T2 sequence (looked up): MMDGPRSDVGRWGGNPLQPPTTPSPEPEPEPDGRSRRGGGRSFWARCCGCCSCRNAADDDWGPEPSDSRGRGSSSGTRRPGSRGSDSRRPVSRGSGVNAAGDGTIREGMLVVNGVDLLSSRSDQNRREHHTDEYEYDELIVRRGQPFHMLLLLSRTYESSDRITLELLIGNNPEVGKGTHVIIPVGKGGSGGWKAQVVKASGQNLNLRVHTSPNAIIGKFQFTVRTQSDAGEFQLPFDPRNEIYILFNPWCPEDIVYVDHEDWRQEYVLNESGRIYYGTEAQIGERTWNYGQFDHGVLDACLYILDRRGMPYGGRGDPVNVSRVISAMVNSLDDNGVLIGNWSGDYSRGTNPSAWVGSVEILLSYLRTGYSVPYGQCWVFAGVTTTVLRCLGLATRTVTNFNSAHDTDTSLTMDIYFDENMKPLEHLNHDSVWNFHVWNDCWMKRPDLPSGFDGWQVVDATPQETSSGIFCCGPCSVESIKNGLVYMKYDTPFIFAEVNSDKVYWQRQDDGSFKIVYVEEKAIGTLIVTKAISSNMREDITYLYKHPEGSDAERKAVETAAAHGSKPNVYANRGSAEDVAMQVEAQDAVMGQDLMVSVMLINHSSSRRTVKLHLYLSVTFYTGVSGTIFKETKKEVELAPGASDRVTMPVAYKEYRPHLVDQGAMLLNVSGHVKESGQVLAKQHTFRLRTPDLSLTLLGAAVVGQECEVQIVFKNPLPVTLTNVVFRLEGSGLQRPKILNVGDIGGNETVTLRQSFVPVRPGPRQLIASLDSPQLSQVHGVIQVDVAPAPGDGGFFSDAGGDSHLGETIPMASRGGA
The assay is described as above.

The next assay has as its target T3, IPO7 (human, UniProt O95373 1-1038).
T3 construct: also called NP_006382.1
In words: anti-FLAG co-IP from lysate of N-FLAG B3GNT2 cells, mass spectrometry. As for the experimental part: (§1) Cells were plated in 10-cm cell culture dishes and grown to 60-80% confluency. For each condition, two biological replicates were harvested for co-IP. Cells were washed with PBS and 4 mL of lysis buffer (20 mM HEPES, 1% Triton X-100, 150 mM NaCl, 1 mM EDTA, and 10% glycerol) containing protease inhibitor cocktail was added. Cells were scraped and lysate was incubated at 4° C. under rotary agitation for 1 h. Lysate was centrifuged at 14,000×g for 10 min at 4° C. Supernatant was transferred to a new tube and an aliquot was taken as the input. […] For Western blots, 10 μg/mL Chicken Anti-FLAG (Aves labs ET-DY100) and IgY control (R&D Systems AB-101-C) antibodies were biotinylated (Thermo Fisher Scientific 90407) and added to the respective conditions. Lysates with antibodies were incubated at 4° C. under rotary agitation overnight. For each mL of lysate, 50 μL of Pierce Protein A/G Magnetic Beads (Mass spectrometry; Thermo Fisher Scientific 88803) or Pierce Streptavidin Magnetic Beads (Western blot; Thermo Fisher Scientific 88817) was washed twice with lysis buffer. Lysates with antibodies were added to the beads and incubated at 4° C. under rotary agitation for 4 h. Beads were washed with lysis buffer 3 times and resuspended in lysis buffer for storage.
(§2) Magnetic beads were resuspended in 100 mM Tris pH 7.8, reduced, alkylated and digested with trypsin at 37° ° C. overnight. This solution was subjected to solid phase extraction to concentrate the peptides and remove unwanted reagents followed by injection onto a Shimadzu HPLC with fraction collector. Eight fractions were collected and after concentration were injected on a Waters NanoAcquity HPLC equipped with a self-packed Aeris 3 μm C18 analytical column 0.075 mm by 20 cm, (Phenomenex). Peptides were eluted using standard reverse-phase gradients. The effluent from the column was analyzed using a Thermo Orbitrap Elite mass spectrometer (nanospray configuration) operated in a data dependent manner for 54 minutes. The resulting fragmentation spectra were correlated against the known database using Proteome Discover 1.4 (Thermo Fisher Scientific).

The next assay deals with RPL34 (human, UniProt P49207 2-117). The description is as above. The method, then:
as §1, §2

The target in the next assay is T4, HDGFL2 (human, UniProt Q7Z4V5 1-671).
T4 construct: also called NP_001001520.1 (+4)
The description is as above. The method, then: as §1, §2

Another assay addresses T5, ABCD1 (human, UniProt P33897 1-745).
T5 construct: also called NP_000024.2
Described as above. As for the experimental part: as §1, §2

T3 sequence (O95373 whole entry): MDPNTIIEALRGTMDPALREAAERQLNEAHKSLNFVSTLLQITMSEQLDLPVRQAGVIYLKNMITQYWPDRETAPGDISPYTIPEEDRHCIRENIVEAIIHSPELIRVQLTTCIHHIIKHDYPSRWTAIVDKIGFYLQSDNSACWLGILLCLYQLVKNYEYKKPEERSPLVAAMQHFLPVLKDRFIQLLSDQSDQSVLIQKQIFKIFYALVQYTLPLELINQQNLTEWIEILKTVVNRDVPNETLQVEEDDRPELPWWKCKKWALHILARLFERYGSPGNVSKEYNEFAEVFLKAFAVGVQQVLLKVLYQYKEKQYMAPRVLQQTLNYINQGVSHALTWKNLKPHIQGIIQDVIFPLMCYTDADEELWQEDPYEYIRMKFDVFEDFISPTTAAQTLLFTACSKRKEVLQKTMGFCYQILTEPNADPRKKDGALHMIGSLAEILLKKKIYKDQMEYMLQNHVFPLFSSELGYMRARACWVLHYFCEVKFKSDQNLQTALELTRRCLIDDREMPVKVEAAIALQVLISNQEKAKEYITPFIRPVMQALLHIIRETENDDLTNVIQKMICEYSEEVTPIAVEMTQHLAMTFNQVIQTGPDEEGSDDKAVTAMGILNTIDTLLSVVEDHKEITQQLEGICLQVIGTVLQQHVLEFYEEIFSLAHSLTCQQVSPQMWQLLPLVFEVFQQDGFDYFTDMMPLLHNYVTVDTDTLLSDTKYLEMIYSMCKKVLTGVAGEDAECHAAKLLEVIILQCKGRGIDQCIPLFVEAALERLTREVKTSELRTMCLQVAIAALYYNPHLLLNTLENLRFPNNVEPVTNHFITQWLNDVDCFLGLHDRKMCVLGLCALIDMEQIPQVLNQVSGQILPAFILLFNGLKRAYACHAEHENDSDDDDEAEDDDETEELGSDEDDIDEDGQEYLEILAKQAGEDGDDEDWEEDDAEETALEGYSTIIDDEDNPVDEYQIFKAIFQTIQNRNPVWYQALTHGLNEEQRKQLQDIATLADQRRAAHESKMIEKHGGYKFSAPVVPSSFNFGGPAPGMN
T5 sequence (P33897 whole entry): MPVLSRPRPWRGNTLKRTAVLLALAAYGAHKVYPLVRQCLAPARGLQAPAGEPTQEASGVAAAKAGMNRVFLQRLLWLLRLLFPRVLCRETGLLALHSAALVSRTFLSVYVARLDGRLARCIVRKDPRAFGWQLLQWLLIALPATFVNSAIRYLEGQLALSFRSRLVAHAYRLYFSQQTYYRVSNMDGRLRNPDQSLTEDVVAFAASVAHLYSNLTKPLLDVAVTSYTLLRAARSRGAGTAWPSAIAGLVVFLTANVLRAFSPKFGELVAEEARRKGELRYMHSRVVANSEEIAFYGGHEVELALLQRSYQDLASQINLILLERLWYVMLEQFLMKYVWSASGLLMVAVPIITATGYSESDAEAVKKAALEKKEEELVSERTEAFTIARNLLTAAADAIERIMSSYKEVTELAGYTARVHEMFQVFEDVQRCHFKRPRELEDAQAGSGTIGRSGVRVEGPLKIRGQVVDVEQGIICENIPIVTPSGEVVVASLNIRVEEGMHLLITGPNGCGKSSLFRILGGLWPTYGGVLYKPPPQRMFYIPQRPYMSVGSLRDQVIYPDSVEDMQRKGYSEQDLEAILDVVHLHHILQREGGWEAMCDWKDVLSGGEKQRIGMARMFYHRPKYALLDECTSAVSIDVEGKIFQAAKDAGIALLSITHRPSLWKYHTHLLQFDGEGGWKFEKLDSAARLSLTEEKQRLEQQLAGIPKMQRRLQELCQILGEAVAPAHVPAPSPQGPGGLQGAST
T4 sequence (Q7Z4V5 whole entry): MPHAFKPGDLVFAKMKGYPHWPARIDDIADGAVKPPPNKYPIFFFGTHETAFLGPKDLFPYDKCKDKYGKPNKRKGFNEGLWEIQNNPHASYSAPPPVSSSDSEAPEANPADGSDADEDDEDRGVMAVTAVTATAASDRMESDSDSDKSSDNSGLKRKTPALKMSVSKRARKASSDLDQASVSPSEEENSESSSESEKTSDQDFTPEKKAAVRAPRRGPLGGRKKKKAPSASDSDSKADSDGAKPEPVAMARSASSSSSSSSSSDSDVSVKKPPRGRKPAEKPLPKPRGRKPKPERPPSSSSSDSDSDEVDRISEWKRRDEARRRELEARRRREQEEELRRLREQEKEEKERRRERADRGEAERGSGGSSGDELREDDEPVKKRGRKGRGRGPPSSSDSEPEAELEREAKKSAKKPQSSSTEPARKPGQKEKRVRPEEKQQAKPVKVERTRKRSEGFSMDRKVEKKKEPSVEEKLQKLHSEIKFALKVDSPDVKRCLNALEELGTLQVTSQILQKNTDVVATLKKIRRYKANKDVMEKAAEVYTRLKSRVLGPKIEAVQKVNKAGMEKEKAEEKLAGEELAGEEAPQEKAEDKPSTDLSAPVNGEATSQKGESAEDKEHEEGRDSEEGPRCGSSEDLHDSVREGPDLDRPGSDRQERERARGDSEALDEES

B1: N-terminal FLAG tagged B3GNT2 (enzyme, human, UniProt Q9NY97 1-397, looked up)
chain: MSVGRRRIKLLGILMMANVFIYFIMEVSKSSSQEKNGKGEVIIPKEKFWKISTPPEAYWNREQEKLNRQYNPILSMLTNQTGEAGRLSNISHLNYCEPDLRVTSVVTGFNNLPDRFKDFLLYLRCRNYSLLIDQPDKCAKKPFLLLAIKSLTPHFARRQAIRESWGQESNAGNQTVVRVFLLGQTPPEDNHPDLSDMLKFESEKHQDILMWNYRDTFFNLSLKEVLFLRWVSTSCPDTEFVFKGDDDVFVNTHHILNYLNSLSKTKAKDLFIGDVIHNAGPHRDKKLKYYIPEVVYSGLYPPYAGGGGFLYSGHLALRLYHITDQVHLYPIDDVYTGMCLQKLGLVPEKHKGFRTFDIEEKNKNNICSYVDLMLVHSRKPQEMIDIWSQLQSAHLKC
notes: FLAG-tagged ORF overexpressed in cells; pulled down from lysate with mouse anti-FLAG; also called N-FLAG B3GNT2; N-term FLAG; not shown: N-terminal FLAG tag
Turning to B1, in the assay with HNRNPM, the “co-IP mass spectrometry count” value turned out to be 6.

B2: N-terminal FLAG tagged B3GNT2 (enzyme, human, UniProt Q9NY97 1-397, looked up)
chain: B1 chain
notes: FLAG-tagged ORF overexpressed in A375 cells; pulled down from the lysate with mouse anti-FLAG; also called N-FLAG B3GNT2; N-term FLAG; not shown: N-terminal FLAG tag
On to B2, for which the “co-IP/MS count, N-term FLAG” value with TGM1 was 17.

B3: N-terminal FLAG tagged B3GNT2 (enzyme, human, UniProt Q9NY97 1-397, looked up)
chain: B1 chain
notes: Bait of the co-IP; pulled down from cell lysate with mouse anti-FLAG antibody; also called N-FLAG B3GNT2; N-term FLAG; not shown: N-terminal FLAG tag
As for B3, the “co-IP mass spectrometry count” value in the assay with IPO7, with RPL34, with HDGFL2 and with ABCD1 was 0 in each case.

(Values after patent publication US20240261333A1 (published 2024).)
